Experimental data: US20190275087A1, “EXPANSION AND DIFFERENTIATION OF STEM CELLS” (Allergan Pharmaceuticals International Limited, priority 2018, published 2019)

Legend:
Format in all cases: cell-based, Human
MSCs [1] = assay: MSC attachment to substrate-bound tropoelastin (EDTA inhibition, cation add-back); settings: cation-free environment
Protocol: MSCs were seeded at a density of 1.5×10^5 cells/cm^2 on tropoelastin-coated wells in serum-free α-MEM containing 0-9 mM ethylenediaminetetraacetic acid (EDTA) (Sigma-Aldrich®). The cells were incubated for 1 hour at 37° C., then washed with PBS to remove unbound cells. Bound cells were fixed, stained and measured for absorbance at 570 nm as described for the proliferation assays. The percentage of cell attachment was determined relative to a set of standards with known cell numbers.
MSCs were washed with cation-free PBS, centrifuged at 270 g for 5 min, and resuspended in cation-free PBS. The cells were seeded at a density of 1.5×10^5 cells/cm^2 on tropoelastin-coated wells in the presence of 0-0.5 mM cation (Mg^2+, Ca^2+ or Mn^2+) and incubated for 45 min at 37° C. Bound cells were fixed and stained, and cell attachment was quantified as previously described.

MSCs [2] = assay: Cell migration via chemotaxis (Boyden chamber); settings: tropoelastin in solution, lower chamber
Protocol: Chemotaxis was measured using a fluorimetric 96-well Boyden chamber assay system (QCM Chemotaxis Cell Migration Assay, Millipore) according to the supplier's instructions. Normal, tropoelastin-supplemented, or growth factor-supplemented media was added to the lower chamber of the well plate, while MSCs were seeded at 14,300 cells/cm^2 in normal media into the upper chamber. Where indicated, integrin-blocking antibodies were added at optimized concentrations to the upper chamber with the cells. Cells that migrate through the permeable membrane into the lower chamber were detached and quantified. Normalized cell migration was calculated by subtracting the extent of undirected cell migration (where no chemoattractant was added to the lower chamber) from each experimental result.

MSCs [3] = assay: MSC adipogenic differentiation (intracellular lipid, Oil Red O)
Protocol: (§1) MSCs were grown in various media formulations and on bare or protein-coated tissue culture wells for 7 days. The expanded cells were harvested, re-seeded on TCP, and differentiated into the adipogenic, osteogenic and chondrogenic lineages using the hMSC Adipogenic BulletKit®, hMSC Osteogenic BulletKit®, and hMSC Chondrogenic BulletKit® (Lonza), respectively, following the manufacturer's instructions.
(§2) To confirm adipogenesis, cells that had been induced for 25 days were washed with PBS, fixed with 10% (v/v) formalin for 30 min, then washed with water. Cells were incubated with 60% (v/v) isopropanol for 5 min and stained for intracellular lipid droplets with 1.8 mg/mL Oil Red O in isopropanol for 20 min. Excess stain was removed with 5 washes of water.

MSCs [4] = assay: MSC chondrogenic differentiation (glycosaminoglycans, Alcian Blue); settings: for decreased MSC chondrogenesis: tropoelastin addition during differentiation
Protocol: as §1
To confirm chondrogenesis, cell pellets that had been induced for 14 days were washed with PBS, embedded in 1.5% (w/v) agar containing 0.85% (w/v) NaCl, and fixed with 10% (v/v) formalin overnight. The samples were dehydrated in 70% (v/v) ethanol for 1 day, then paraffin-embedded, sectioned, mounted onto slides, stained with Alcian Blue (pH 2.5) for 1 hour and counterstained with Nuclear Fast Red. Samples were imaged with an Olympus VS120 Slide Scanner.

MSCs [5] = assay: Tri-lineage differentiation of MSCs expanded with tropoelastin; settings: substrate-bound or soluble, replacing growth factors, normal or reduced serum media
Protocol: as §1, §2
To confirm osteogenesis, cells that had been induced for 14 days were fixed and stained for mineralized calcium deposits with Alizarin Red S, as previously described. Cells from the adipogenic and osteogenic experiments were imaged with a Zeiss Axio Vert.A1 microscope using an AxioCam 105 colour camera.
To confirm chondrogenesis, cell pellets that had been induced for 14 days were washed with PBS, embedded in 1.5% (w/v) agar containing 0.85% (w/v) NaCl, and fixed with 10% (v/v) formalin overnight. […]

[6] = tropoelastin addition during MSC expansion

B1: recombinant human tropoelastin (Elastagen) (ligand, UniProt P15502-2 27-724, looked up)
chain: GGVPGAIPGGVPGGVFYPGAGLGALGGGALGPGGKPLKPVPGGLAGAGLGAGLGAFPAVTFPGALVPGGVADAAAAYKAAKAGAGLGGVPGVGGLGVSAGAVVPQPGAGVKPGKVPGVGLPGVYPGGVLPGARFPGVGVLPGVPTGAGVKPKAPGVGGAFAGIPGVGPFGGPQPGVPLGYPIKAPKLPGGYGLPYTTGKLPYGYGPGGVAGAAGKAGYPTGTGVGPQAAAAAAAKAAAKFGAGAAGVLPGVGGAGVPGVPGAIPGIGGIAGVGTPAAAAAAAAAAKAAKYGAAAGLVPGGPGFGPGVVGVPGAGVPGVGVPGAGIPVVPGAGIPGAAVPGVVSPEAAAKAAAKAAKYGARPGVGVGGIPTYGVGAGGFPGFGVGVGGIPGVAGVPGVGGVPGVGGVPGVGISPEAQAAAAAKAAKYGVGTPAAAAAKAAAKAAQFGLVPGVGVAPGVGVAPGVGVAPGVGLAPGVGVAPGVGVAPGVGVAPGIGPGGVAAAAKSAAKVAAKAQLRAAAGLGAGIPGLGVGVGVPGLGVGAGVPGLGVGAGVPGFGAVPGALAAAKAAKYGAAVPGVLGGLGALGGVGIPGGVVGAGPAAAAAAAKAAAKAAQFGLVGAAGLGGLGVGGLGVPGVGGLGGIPPAAAAKAAKYGAAGLGGVLGGAGQFPLGGVAARPGFGLSPIFPGGACLGKACGRKRK
MSC adhesion to tropoelastin (MSCs [1]): 20.0±2.1% | chemotactic response of MSCs (MSCs [2]): dose-dependent chemotactic response | intracellular lipid formation (MSCs [3]; 20 μg/ml TE during both expansion and induction stages): increase in intracellular lipid formation | intracellular lipid formation compared to culture lacking TE (MSCs [3]; induced in the presence of TE): increase in intracellular lipid formation | increased adipogenesis (MSCs [3]; [6]): 33% | increased adipogenesis (MSCs [3]; tropoelastin addition during differentiation): 19% | promoted adipogenesis (MSCs [3]; tropoelastin during both expansion and differentiation stages): 69-85% | effect on chondrogenic differentiation (MSCs [4]; TE added during the induction stage): inhibited chondrogenic differentiation | pro-chondrogenic effects versus timing of exposure during expansion (MSCs [4]; TE days 2-5, 3-6 or 4-7 of 7-day proliferation period): observed only when tropoelastin was present in the early stages of expansion | concentration during induction stage that significantly inhibited chondrogenic differentiation (MSCs [4]; TE present during induction): ≥ 2 µg/mL | glycosaminoglycan production (MSCs [4]; expanded in 20 μg/ml TE, induced in the absence of TE): highest extent of glycosaminoglycan production | glycosaminoglycan levels compared to cells expanded without TE (MSCs [4]; expanded in presence of TE, TE not present during differentiation): increased glycosaminoglycan levels | increased chondrogenesis compared to cells exposed from days 4-7 (MSCs [4]; exposed days 2-5 of expansion period): 71% | improved chondrogenesis (MSCs [4]; [6]): 134% | decreased MSC chondrogenesis (MSCs [4]; cells expanded with tropoelastin): 80% | decreased MSC chondrogenesis (MSCs [4]; cells expanded without tropoelastin): 63% | differentiation capacity after expansion (MSCs [5]): exhibited the capacity for multi-lineage differentiation
